Source: US12269859B2, “Synthetic immune receptors and methods of use thereof” (Angeles Therapeutics, Inc., priority 2016, dated 2025)

B1: 022217-X03 (protein)
chain: MALPVTALLLPLALLLHAARPLEGKPIPNPLLGLDSTGSGEDLKNVFPPEVAVFEPSKAEIAHTQKATLVCLATGFYPDHVELSWWVNGKEVHSGVCTDPQPLKEQPALNDSRYCLSSRLRVSATFWQNPRNHFRCQVQFYGLSENDEWTQDRAKPVTQIVSAEAWGRADCGITSASYHQGVLSATILYEILLGKATLYAVLVSALVLMAMVKRKDSRGRAKRSGSGATNFSLLKQAGDVEENPGPTSMALPVTALLLPLALLLHAARPDIQMTQSPSSLSASVGDRVTINCKASQDINSYLSWFQQKPGKAPKTLIYRANRLVDGVPSRFSGSGSGQDYTLTISSLQPEDFATYYCLQYDEFPLTFGGGTKVEIKGGGGSGGGGSGGGGSQVQLVQSGAEVKKPGASVKVSCKASGYTFTNYDINWVRQAPGQGLEWIGWIYPGDGSTKYNEKFKAKATLTADTSTSTAYMELRSLRSDDTAVYYCASGYEDAMDYWGQGTTVTVSSTREQKLISEEDGSGIQNPDPAVYQLRDSKSSDKSVCLFTDFDSQTNVSQSKDSDVYITDKCVLDMRSMDFKSNSAVAWSNKSDFACANAFNNSIIPEDTFFPSSDVPCDVKLVEKSFETDTNLNFQNLSVIGFRILLLKVAGFNLLMTLRLWSSRAKRSGSGVKQTLNFDLLKLAGDVESNPGPSRGHMTEYKPTVRLATRDDVPRAVRTLAAAFADYPATRHTVDPDRHIERVTELQELFLTRVGLDIGKVWVADDGAAVAVWTTPESVEAGAVFAEIGPRMAELSGSRLAAQQQMEGLLAPHRPKEPAWFLATVGVSPDHQGKGLGSAVVLPGVEAAERAGVPAFLETSAPRNLPFYERLGFTVTADVEVPEGPRTWCMTRKPGA
B2: 051116-C05 (protein)
chain: MALPVTALLLPLALLLHAARPDIVMTQSPDSLAVSLGERATINCRASKSVSTSGYSFMHWYQQKPGQPPKLLIYLASNLESGVPDRFSGSGSGTDFTLTISSLQAEDVAVYYCQHSREVPWTFGQGTKVEIKRLEDLKNVFPPEVAVFEPSEAEISHTQKATLVCLATGFYPDHVELSWWVNGKEVHSGVSTDPQPLKEQPALNDSRYCLSSRLRVSATFWQNPRNHFRCQVQFYGLSENDEWTQDRAKPVTQIVSAEAWGRADCGFTSESYQQGVLSATILYEILLGKATLYAVLVSALVLMAMVKRKDSRGRAKRSGSGATNFSLLKQAGDVEENPGPTSMDWIWRILFLVGAATGAHSFEQVQLVQSGAEVKKPGASVKVSCKASGYTFTNYGMNWVRQAPGQGLEWMGWINTYTGEPTYADAFKGRFAFSLDTSTSTAYLQINSLRSDDTAVYYCARDYGDYGMDYWGQGTTVTVSSTRIQNPDPAVYQLRDSKSSDKSVCLFTDFDSQTNVSQSKDSDVYITDKTVLDMRSMDFKSNSAVAWSNKSDFACANAFNNSIIPEDTFFPSPESSCDVKLVEKSFETDTNLNFQNLSVIGFRILLLKVAGFNLLMTLRLWSSRAKRSGSGVKQTLNFDLLKLAGDVESNPGPSRGHMTEYKPTVRLATRDDVPRAVRTLAAAFADYPATRHTVDPDRHIERVTELQELFLTRVGLDIGKVWVADDGAAVAVWTTPESVEAGAVFAEIGPRMAELSGSRLAAQQQMEGLLAPHRPKEPAWFLATVGVSPDHQGKGLGSAVVLPGVEAAERAGVPAFLETSAPRNLPFYERLGFTVTADVEVPEGPRTWCMTRKPGA
modifications: Synthetic Immune Receptor (SIR)
B3: 012517-I12 (protein)
chain: MALPVTALLLPLALLLHAARPLEGKPIPNPLLGLDSTGSGEDLKNVFPPEVAVFEPSKAEIAHTQKATLVCLATGFYPDHVELSWWVNGKEVHSGVCTDPQPLKEQPALNDSRYCLSSRLRVSATFWQNPRNHFRCQVQFYGLSENDEWTQDRAKPVTQIVSAEAWGRADCGITSASYHQGVLSATILYEILLGKATLYAVLVSALVLMAMVKRKDSRGRAKRSGSGATNFSLLKQAGDVEENPGPTSMALPVTALLLPLALLLHAARPDIQLTQSPSSLSASVGDRVTITCRASQGISSVLAWYQQKPGKAPKLLIYDASSLESGVPSRFSGSGSGTDFTLTISSLQPEDFATYYCQQFNSSITFGQGTKLEIKRTVAAGGGGSGGGGSGGGGSQVQLVQSGAEVKKPGSSVKVSCKASGGTFSDYAISWVRQAPGQGLEWMGRIIPILGVANYAQKFQGRVTITADKSTRTAYMELSSLRSEDTAVYYCARNWADAFDIWGQGTMVTVSSASTREQKLISEEDGSGIQNPDPAVYQLRDSKSSDKSVCLFTDFDSQTNVSQSKDSDVYITDKCVLDMRSMDFKSNSAVAWSNKSDFACANAFNNSIIPEDTFFPSSDVPCDVKLVEKSFETDTNLNFQNLSVIGFRILLLKVAGFNLLMTLRLWSSRAKRSGSGVKQTLNFDLLKLAGDVESNPGPSRGHMTEYKPTVRLATRDDVPRAVRTLAAAFADYPATRHTVDPDRHIERVTELQELFLTRVGLDIGKVWVADDGAAVAVWTTPESVEAGAVFAEIGPRMAELSGSRLAAQQQMEGLLAPHRPKEPAWFLATVGVSPDHQGKGLGSAVVLPGVEAAERAGVPAFLETSAPRNLPFYERLGFTVTADVEVPEGPRTWCMTRKPGA
B4: 060717-T02 (protein)
chain: MALPVTALLLPLALLLHAARPDIQMTQSPSSLSASVGDRVTINCKASQDINSYLSWFQQKPGKAPKTLIYRANRLVDGVPSRFSGSGSGQDYTLTISSLQPEDFATYYCLQYDEFPLTFGGGTKVEIKLEIQNPDPAVYQLRDSKSSDKSVCLFTDFDSQTNVSQSKDSDVYITDKCVLDMRSMDFKSNSAVAWSNKSDFACANAFNNSIIPEDTFFPSSDVPCDVKLVEKSFETDTNLNFQNLSVIGFRILLLKVAGFNLLMTLRLWSSRAKRSGSGVKQTLNFDLLKLAGDVESNPGPTSMDWIWRILFLVGAATGAHSFEQVQLVQSGAEVKKPGASVKVSCKASGYTFTNYDINWVRQAPGQGLEWIGWIYPGDGSTKYNEKFKAKATLTADTSTSTAYMELRSLRSDDTAVYYCASGYEDAMDYWGQGTTVTVSSTREDLKNVFPPEVAVFEPSKAEIAHTQKATLVCLATGFYPDHVELSWWVNGKEVHSGVCTDPQPLKEQPALNDSRYCLSSRLRVSATFWQNPRNHFRCQVQFYGLSENDEWTQDRAKPVTQIVSAEAWGRADCGITSASYHQGVLSATILYEILLGKATLYAVLVSALVLMAMVKRKDSRGRAKRSGSGATNFSLLKQAGDVEENPGPSRGHMTEYKPTVRLATRDDVPRAVRTLAAAFADYPATRHTVDPDRHIERVTELQELFLTRVGLDIGKVWVADDGAAVAVWTTPESVEAGAVFAEIGPRMAELSGSRLAAQQQMEGLLAPHRPKEPAWFLATVGVSPDHQGKGLGSAVVLPGVEAAERAGVPAFLETSAPRNLPFYERLGFTVTADVEVPEGPRTWCMTRKPGA

System: target antigen-expressing cell line
Experiment: Jurkat NFAT-GFP assay, coculture with target cell lines expressing the respective target antigen (summary Table 10A)
Assay type: cell-based, human
Set-up: key: The signs +/−, +, 2+ etc. after the name of the cell lines indicate the relative degree of positivity on the Jurkat-NFAT-GFP assay as measured by the % GFP positive cells; +: relative degree of positivity on the Jurkat-NFAT-GFP assay as measured by the % GFP positive cells; 2+: relative degree of positivity on the Jurkat-NFAT-GFP assay as measured by the % GFP positive cells
Conditions: relative % GFP positive cells; for NFAT-GFP ASSAY Positive Cell lines: HL60: SIR-expressing Jurkat-NFAT-GFP cells cocultured with HL60
Procedure, shortened: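 Coculture of SIR-bearing Jurkat NFAT-GFP reporters with target cells, ~1:2 E:T, ~4–18 h. FACS quantified % GFP+ cells, ranked semi-quantitatively against parental Jurkat-NFAT-GFP.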

Row | Molecule | NFAT-GFP ASSAY Positive Cell lines: HL60 | other results
1 | B1 | – | NFAT-GFP ASSAY Positive Cell lines: U266 (SIR-expressing Jurkat-NFAT-GFP cells cocultured with U266): U266 (+/−)
2 | B2 | – | NFAT-GFP ASSAY Positive Cell lines: THP1 (SIR-expressing Jurkat-NFAT-GFP cells cocultured with THP1): THP1 (+/−)
3 | B3 | HL60 (+/−) | –
4 | B4 | HL60 (2+) | –
